From IntAct's records for PubMed 17496148

B1: Anti-sigma-E factor RseA (Escherichia coli (strain K12)), P0AFX7 (parent)
chain: MQKEQLSALMDGETLDSELLNELAHNPEMQKTWESYHLIRDSMRGDTPEVLHFDISSRVMAAIEEEPVRQPATLIPEAQPAPHQWQKMPFWQKVRPWAAQLTQMGVAACVSLAVIVGVQHYNGQSETSQQPETPVFNTLPMMGKASPVSLGVPSEATANNGQQQQVQEQRRRINAMLQDYELQRRLHSEQLQFEQAQTQQAAVQVPGIQTLGTQSQ
partner: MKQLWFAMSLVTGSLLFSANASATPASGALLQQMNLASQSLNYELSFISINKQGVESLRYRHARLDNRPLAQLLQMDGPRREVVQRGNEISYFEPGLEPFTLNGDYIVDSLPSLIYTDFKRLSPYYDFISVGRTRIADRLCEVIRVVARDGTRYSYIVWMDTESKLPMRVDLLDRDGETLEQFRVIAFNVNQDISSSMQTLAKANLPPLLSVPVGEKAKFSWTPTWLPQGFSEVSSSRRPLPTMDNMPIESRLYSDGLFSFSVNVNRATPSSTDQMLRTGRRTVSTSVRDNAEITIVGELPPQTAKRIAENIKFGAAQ

Variants of: B1
Settings: with rseb_ecoli rseB

Row | Variant | effect of a mutation on the interaction
1 | MQKEQLSALMDGETLDSELLNELAHNPEMQKTWESYHLIRDSMRGDTPEVLHFDISSRVMAAIEEEPVRQPATLIPEAQPAPHQWQKMPFWQKVRPWAAQLTQMGVAACVSLAVIVGVQHYNGQSETSQQPETPVFNTLPMMGKASPVSLGVPSEATANNGQQQQVQEQRAAINAMLQDYELQRRLHSEQLQFEQAQTQQAAVQVPGIQTLGTQSQ [R171A;R172A] | disrupting interaction strength
2 | MQKEQLSALMDGETLDSELLNELAHNPEMQKTWESYHLIRDSMRGDTPEVLHFDISSRVMAAIEEEPVRQPATLIPEAQPAPHQWQKMPFWQKVRPWAAQLTQMGVAACVSLAVIVGVQHYNGQSETSQQPETPVFNTLPMMGKASPVSLGVPSEATANNGQQQQVQEQREEINAMLQDYELQRRLHSEQLQFEQAQTQQAAVQVPGIQTLGTQSQ [R171E;R172E] | disrupting interaction strength
3 | MQKEQLSALMDGETLDSELLNELAHNPEMQKTWESYHLIRDSMRGDTPEVLHFDISSRVMAAIEEEPVRQPATLIPEAQPAPHQWQKMPFWQKVRPWAAQLTQMGVAACVSLAVIVGVQHYNGQSETSQQPETPVFNTLPMMGKASPVSLGVPSEATANNGQQQQVQEQRRRINAMLQDYELQAALHSEQLQFEQAQTQQAAVQVPGIQTLGTQSQ [R184A;R185A] | disrupting interaction strength
4 | MQKEQLSALMDGETLDSELLNELAHNPEMQKTWESYHLIRDSMRGDTPEVLHFDISSRVMAAIEEEPVRQPATLIPEAQPAPHQWQKMPFWQKVRPWAAQLTQMGVAACVSLAVIVGVQHYNGQSETSQQPETPVFNTLPMMGKASPVSLGVPSEATANNGQQQQVQEQRRRINAMLQDYELQEELHSEQLQFEQAQTQQAAVQVPGIQTLGTQSQ [R184E;R185E] | disrupting interaction strength
